Test results taken from US20080242590A1, “New Method 706” (ASTRAZENECA AB, priority 2007, published 2008).

Assays:
Assay in all cases: cell-based or functional assay
[1] = target: amyloid β peptide 1-40 (human) (human)
[2] = target: amyloid β peptide 1-42 (human) (human)
[3] = target: amyloid β peptide 1-40 in guinea pig plasma (guinea pig) (UniProt Q60495)
[4] = target: amyloid β peptide 1-42 in guinea pig plasma (guinea pig) (UniProt Q60495)
Chain of amyloid β peptide 1-42 in guinea pig plasma (guinea pig) (Q60495 672-713 limits assumed): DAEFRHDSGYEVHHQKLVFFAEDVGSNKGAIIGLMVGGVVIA

Chain of amyloid β peptide 1-42 (human) (human) (peptide, as listed by the source): as the sequence (Q60495 672-713 limits assumed) above
Chain of amyloid β peptide 1-40 (human) (human) (peptide, as listed by the source): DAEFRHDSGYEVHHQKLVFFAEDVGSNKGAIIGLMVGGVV
Chain of Recombinant Human Neprilysin (R&D Systems) (P08473 52-750 limits assumed): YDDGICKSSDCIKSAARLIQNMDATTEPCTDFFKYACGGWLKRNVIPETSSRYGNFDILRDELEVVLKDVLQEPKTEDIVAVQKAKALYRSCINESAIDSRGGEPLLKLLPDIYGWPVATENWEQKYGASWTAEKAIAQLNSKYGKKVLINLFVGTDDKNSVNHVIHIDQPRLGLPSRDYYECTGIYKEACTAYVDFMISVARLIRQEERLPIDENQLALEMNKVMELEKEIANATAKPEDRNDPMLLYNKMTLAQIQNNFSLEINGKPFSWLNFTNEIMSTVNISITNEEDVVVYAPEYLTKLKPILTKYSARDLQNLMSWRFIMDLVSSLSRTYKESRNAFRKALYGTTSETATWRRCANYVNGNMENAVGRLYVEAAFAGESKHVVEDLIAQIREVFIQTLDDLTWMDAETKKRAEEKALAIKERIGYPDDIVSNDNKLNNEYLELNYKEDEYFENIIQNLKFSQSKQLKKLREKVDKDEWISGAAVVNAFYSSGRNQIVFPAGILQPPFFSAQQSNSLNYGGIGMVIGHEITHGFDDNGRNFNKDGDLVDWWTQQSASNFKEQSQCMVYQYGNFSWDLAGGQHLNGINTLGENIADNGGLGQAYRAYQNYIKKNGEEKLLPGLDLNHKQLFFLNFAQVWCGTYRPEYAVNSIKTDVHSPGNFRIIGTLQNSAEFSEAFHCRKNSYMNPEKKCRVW

Substance | % degradation of amyloid β 1-40 in APPswe-tg mouse plasma at highest concentration (100 µg/ml), 1 h room temperature, ELISA [1] [%] | % degradation of amyloid β 1-40 in human plasma at highest concentration (100 µg/ml), 1 h room temperature, ELISA [1] [%] | EC50 of degradation of Aβ 1-40 in APPswe-tg mouse plasma [1] [nM] | EC50 of degradation of Aβ 1-40 in human plasma [1] [nM] | % degradation of Aβ 1-42 in APPswe-tg mouse plasma at highest concentration (100 µg/ml), 1 h room temperature, ELISA [2] [%] | % degradation of Aβ 1-42 in human plasma at highest concentration (100 µg/ml), 1 h room temperature, ELISA [2] [%] | EC50 of degradation of Aβ 1-42 in APPswe-tg mouse plasma [2] [nM] | EC50 of degradation of Aβ 1-42 in human plasma [2] [nM] | degradation of Aβ40 in guinea pig plasma ex vivo compared to vehicle (ELISA), 5 µg/ml, 4 h at 37 °C [3] [%] | reduction of Aβ42 in guinea pig plasma ex vivo compared to vehicle (ELISA), 5 µg/ml, 4 h at 37 °C [4] [%]
mouse version of the Fc-Nep (mFc-Nep) (Fc fusion) | 77 | 71 | 340 | 400 | 53 | 19 | 820 | 180 | – | –
Recombinant Human Neprilysin (R&D Systems) (from UniProt P08473 52-750) (enzyme) | – | – | – | – | – | – | – | – | 49 | > 57
